According to the DeepSol protein solubility set:

Test: soluble on expression in E. coli; label from the status in PepcDB or PDB records

Row | Sequence | soluble on expression in E. coli
1 | MDEFVKGLMKNGYLITPSAYYLLVGHFNEGKFSLIELIKFAKSRETFIIDDEIANEFLKSIGAEVELPQEIKEGYISTGEGSQKVPDHEELEKITNESSVESSISTGETPKTEELQPTLDILEEEIGDIEGGESSISTGDEVPEVENNNGGTVVVFDKYGYPFTYVPEEIEEELEEYPKYEDVTIEINPNLEVVPIEKDYEIKFDVRRVKLKPPKVKSGSGKEGEIIVEAYASLFRSRLRKLRRILRENPEVSNVIDIKKLKYVKGDEEVTIIGLVNSKKETSKGLIFEVEDQTDRVKVFLPKDSEDYREALKVLPDAVVAFKGVYSKRGIFFANRFYLPDVPLYRKQKPPLEEKVYAVLTSDIHVGSKEFCEKAFIKFLEWLNGYVESKEEEEIVSRIRYLIIAGDVVDGIGIYPGQYSDLIIPDIFDQYEALANLLSNVPKHITIFIGPGNHDAARPAIPQPEFYEEYAKPLYKLKNTVIISNPAVIRLHGRDFLIAHGRGIEDVVSFVPGLTHHKPGLPMVELLKMRHLAPTFGGKVPIAPDPEDLLVIEEVPDLVQMGHVHVYDTAVYRGVQLVNSATWQAQTEFQKMVNIVPTPGLVPIVDVESARVIKVLDFSRWC | soluble
2 | MSLKSELPPVQVALDLVDLPRAIEIAKEAVAGGVTWVEAGTPLIKSEGMNAIRELRKNFPTLTIVADMKTMDAGSTEVEMAAKAGANVILILGVGPDSMIIDAVKAGKKYGVLVGTDLIATEDPIKRAVELEEMGVDIINIHVGLDQQVLNVDPVELVKRVSENCKKAKIAAAGGLNSETAVKAYEAGADIIIAGGTLYKSADPEQTARDIIKGLKTGKPVKTDKFKKFNESELVSAFNVVSTSNISDAMHRTGEMKGLKPVWNSEKPLKFAGPAVTVRTYSGDWSKPVSAIDDCEAGNVLVIDNCSSEIACWGGLATLSCETKGVVAIVIDGAVRDVEEILKIGIPVFARSITPTAGEPKGFGEINAVIDCAGRTVEPGDWIVGDENGIIVVPKNEAMEIANRAIDVKEREDRVKEEITRGTTLAKTIRLKDWELKEGHHHHHH | soluble
3 | MEKDNICYKTYVEILERELVPAMGCTEPIALAYCSAKARSVLGVLPDKVLVEVSGNIVKNVKSVIVPNSGGRRGIEAAAAVGILAGREDLELEVLSKVTDEDIAGLGAYMEKVEITVAPLDTPYLLDMAVTAKKDGSRARVRIAQEHTNIIEIEKDGKILFEKQAGEEEDCDAPDYSLLTIEKIYDFADTADLEDVKAVLDRQIAYNTAIAEEGLRGDYGANIGRVLMEEYGDRIENRAKAMAAAGSDARMNGCDLPVIINSGSGNQGMTASLPVIEYAKELKCSREKLYRALLLSNLVTLHQKTGIGRLSAYCGAVSAGAGAGAGIAYLEGGDLKVVAHTLVNALAITSGIVCDGAKASCAAKIAVAVDTGILGYKMYKKGQQFYGGDGLVAKGVENTIRNIGRLGKEGMKETDKEIIRIMTE | not soluble
4 | TDIVLWDKPGEKVLLLGNQAIVRGALEGNIGVYAAYPGTPSSEITDTMAMVAKKAGVYMEYSTNEKVAFETALSASWAGLRAMTAMKHVGLNVAMDSFMTVSYMGINGGLIVVVADDPSMWSSQNEQDTRAIAKFANIPVLEPSSVQEAKDMVKYAFEISEKYGQMVILRTTTRSSHMRGDVVLGELPQEIKEGKRKFGNFKKNPEKYVDIPAFQRPKHPWLLETIEKFREEFNTSPFNWIEGPEDAKVGIIAPGLSYAYVKEALAWLGIDNVKILKLGTPFPVPYGLLEKFFNGLERVLIVEELEPVVEEQVKVWAFDNNINIEIHGKDLVPRVYEMTTRRAVEAVAKFLGVETPINFQEIDEKYKKVQEMVPPRPPSLCPACPHRNTFFAIRKAATPRAIFPSDIGCYTLGVLPPLKTVDTTIAMGGSIGVAHGLSIALNGALGEEQRKTGKEKKIIVATIGDSTFFHTGLPALANAIYNRSNVLIVVMDNMVTAMTGDQPNPGTGETPHGPGKRILIEEVARAMGADFVAVVDPYDIKETYETIKKALEVEGVSVVVSRRACALYRIGQLRREGKQWPIYQVNEEKCTGCKICINAYGCPAIYWDAEK | not soluble
5 | MNGNIIGEDEKGVALFVEDNSGNEHEIGVNSEGDIFHHADNVIPDNPSERSDKEDETFSQVRRFARYHVYREKGYDTIPTDENPDRIAAVLLAIIDLDDEEFENRFKPLYKQVMSHERPDVEPSLDLPDSVYHGGEPCYKQNIYLEESLEEMKSTVSEQLVESIGQEQITEVLQADSGDFFSRAASLFGGPNGNYGGLTIDGISGIDTVHLVDGKEQTIKSDDPFERGPDARLELYPSNFDFEAFRFYIGYNLICQIRDCFIGMGVEPPAQYRVLGPGKDKYTGKYHAFDFYPEYHNPGATIPGYIRPAPI | not soluble
6 | MLSAESLKQIDIELAKYPADQRRSAIMGALRIAQTEKGWLAPETIAFVADYIGITPAQAYEVATFYNMYDLEPVGKYKLTVCTNLPCALRGGMATGEYLKQKLGIGYGETTPDGKFTLVEGECMGACGDAPVMLVNNHSMCSFMTEEAIEKKLAELE | not soluble
